What all share (assay): FXase
Experiment [1] deals with activated ET9 (ET9a; FIX-403 with p.Arg384Leu) (human) (UniProt P00740).
Experiment [2] has as its target activated human factor IX (hFIXa) (human) (UniProt P00740).
Experiment [3] deals with activated human factor IX Padua (hFIXa-Padua, p.Arg384Leu) (human) (UniProt P00740).
In experiment [4] the target is activated FIX-403 (FIXa-403) (human) (UniProt P00740).

This is an account of results in article PMC10922771.

Turning to “activated factor VIII (FVIIIa), from Advate, recombinant full-length FVIII activated with thrombin (complex)”, the Kd stood at 0.26 nM in experiment [1], 7.8 nM in experiment [2], 1.08 nM in experiment [3] and 2.08 nM in experiment [4].
